Measured values from doi:10.1101/2022.12.07.519389 (bioRxiv, 2022).

Target: the molecule itself
Test: negative-stain EM + ThT fluorescence

B1: CPEB3 residues 1-217 (prion-like domain 1 construct) (domain or fragment)
chain: MQDDLLMDKSKTQPQPQQQQRQQQQPQPESSVSEAPSTPLSSETPKPEENSAVPALSPAAAPPAPNGPDKMQMESPLLPGLSFHQPPQQPPPPQEPAAPGASLSPSFGSTWSTGTTNAVEDSFFQGITPVNGTMLFQNFPHHVNPVFGGTFSPQIGLAQTQHHQQPPPPAPAPQPAQPAQPPQAQPPQQRRSPASPSQAPYAQRSAAAAYGHQPIMT
  binding result: binds
